Data set [1] has as its target FLAG-DEP1 (rice (Oryza sativa)) (UniProt Q67UU9).
The target in data set [2] is T1, DEP1 (Oryza sativa, UniProt Q67UU9 1-426).
T1 sequence: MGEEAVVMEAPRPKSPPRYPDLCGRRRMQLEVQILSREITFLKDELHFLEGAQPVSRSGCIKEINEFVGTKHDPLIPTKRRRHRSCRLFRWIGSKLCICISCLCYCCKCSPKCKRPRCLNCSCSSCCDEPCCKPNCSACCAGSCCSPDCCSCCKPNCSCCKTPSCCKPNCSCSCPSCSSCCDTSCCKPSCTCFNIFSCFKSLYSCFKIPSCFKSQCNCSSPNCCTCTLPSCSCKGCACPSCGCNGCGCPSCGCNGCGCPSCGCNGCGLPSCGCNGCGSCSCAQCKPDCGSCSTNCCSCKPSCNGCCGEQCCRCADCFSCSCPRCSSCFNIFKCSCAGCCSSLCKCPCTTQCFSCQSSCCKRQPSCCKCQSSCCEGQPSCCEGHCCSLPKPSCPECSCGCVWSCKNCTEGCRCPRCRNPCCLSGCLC
Briefly: EMSA; LightShift Chemiluminescent EMSA Kit (Thermo), manufacturer's instructions; buffer, salt, pH and temperature not stated. The conditions noted are these: protein: recombinant; tags: MBP; label: biotin; blunt.

For data set [3], the target named is T2, SP3 (Dof15) (Oryza sativa).
T2 chain: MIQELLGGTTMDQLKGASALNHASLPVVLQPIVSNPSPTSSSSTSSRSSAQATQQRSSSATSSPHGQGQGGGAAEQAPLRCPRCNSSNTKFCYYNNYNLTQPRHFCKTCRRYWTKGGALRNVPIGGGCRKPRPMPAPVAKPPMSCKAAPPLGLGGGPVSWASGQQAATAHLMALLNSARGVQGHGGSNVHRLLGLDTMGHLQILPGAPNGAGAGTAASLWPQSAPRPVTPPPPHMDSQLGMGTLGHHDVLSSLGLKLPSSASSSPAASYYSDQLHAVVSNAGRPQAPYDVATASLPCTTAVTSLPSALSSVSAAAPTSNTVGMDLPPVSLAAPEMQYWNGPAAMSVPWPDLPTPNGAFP
Described as above. The conditions noted are these: protein: recombinant; tags: GST (pGEX-6p); label: biotin; blunt.

The text below walks through data of publication PMC12667520, “SP3 and DEP1 Orchestrate Panicle Architecture by Jointly Regulating APO2 Expression in Rice”.

Turning to HA-SP3 (natural protein), the share of DEP1-GFP signals localised to the nucleus in rice protoplasts: 16% without SP3, 76% with SP3-HA co-expressed in data set [1] came to 76%.

B1: Bio-Probe (APO2 promoter) (dsDNA)
DNA 1: ACGCATGCAGGAGTATCTTTTTTCTTCGGAAGAGGAACAGTGAC
DNA 2: GTCACTGTTCCTCTTCCGAAGAAAAAAGATACTCCTGCATGCGT
Consider B1, for which the binding result in data set [2] was “no binding”; in data set [3], “binds”.
